1 molecule from patent publication CN110563849A (ANHUI RUBIOX VISION BIOTECHNOLOGY CO LTD, dated 2019) can be followed below.

This assay deals with T1, PD-1-mFc (人PD-1胞外区加Fc纯化标签) (human, UniProt Q15116 25-170).
T1 construct: extracellular domain;domain: Fc; also called PD-1抗原; PD-1蛋白; not shown: mFc, Fc purification tag (mouse Fc)
Put plainly: competition ELISA, PD-1-mFc coated, competitor PDL-1-hFc. On the technique in general: An ELISA detects its analyte on a solid surface through an enzyme-linked reagent.

T1 sequence (Q15116 25-170): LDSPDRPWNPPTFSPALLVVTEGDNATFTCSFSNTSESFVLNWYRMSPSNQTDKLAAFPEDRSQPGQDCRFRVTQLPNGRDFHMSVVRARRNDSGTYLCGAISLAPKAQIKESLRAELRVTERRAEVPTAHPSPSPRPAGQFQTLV

B1: 双特异性抗体Vs3P4 (dsFv-VEGF-linker-PD1-H chain结构) (bispecific antibody, human IgG4 S228P, kappa)
heavy: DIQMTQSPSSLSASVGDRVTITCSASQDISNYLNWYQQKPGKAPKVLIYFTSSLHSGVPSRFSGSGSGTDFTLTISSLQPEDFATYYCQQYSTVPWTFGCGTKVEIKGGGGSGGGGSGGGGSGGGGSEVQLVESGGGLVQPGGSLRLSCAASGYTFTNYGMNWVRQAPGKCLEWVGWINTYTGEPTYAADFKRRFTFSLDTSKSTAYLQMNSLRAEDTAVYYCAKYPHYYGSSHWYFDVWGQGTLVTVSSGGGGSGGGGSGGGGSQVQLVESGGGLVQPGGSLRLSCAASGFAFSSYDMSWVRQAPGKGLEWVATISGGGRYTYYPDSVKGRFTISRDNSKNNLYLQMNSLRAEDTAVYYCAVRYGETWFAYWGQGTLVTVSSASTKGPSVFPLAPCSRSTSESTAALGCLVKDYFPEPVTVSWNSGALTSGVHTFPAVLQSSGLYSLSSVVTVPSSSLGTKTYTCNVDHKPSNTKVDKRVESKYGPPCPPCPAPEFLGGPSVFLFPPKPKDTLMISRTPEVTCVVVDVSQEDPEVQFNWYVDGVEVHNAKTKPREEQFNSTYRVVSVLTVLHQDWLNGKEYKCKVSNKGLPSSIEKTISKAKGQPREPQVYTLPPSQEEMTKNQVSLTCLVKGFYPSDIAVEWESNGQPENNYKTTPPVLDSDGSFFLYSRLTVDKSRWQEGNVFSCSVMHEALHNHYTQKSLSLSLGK
light: DIQMTQSPSSLSASVGDRVTITCRASQDINTYLAWFQQKPGKAPKSLIYRANRLVSGVPSRFSGSGSGTDFTLTISSLQPEDMATYYCLQYDEFPLTFGAGTKLELKRTVAAPSVFIFPPSDEQLKSGTASVVCLLNNFYPREAKVQWKVDNALQSGNSQESVTEQDSKDSTYSLSSTLTLSKADYEKHKVYACEVTHQGLSSPVTKSFNRGEC
notes: Expressed in 293F cells; also called 抗VEGF-抗PD1双特异性抗体
Regarding B1, the binding result is on record as “binds”.
